Reference: US20170114104A1

Target: Biotin-AP (biotinylated AP-peptide with a fluorescent dye)
Assay: native-PAGE off-rate under excess biotin, 37 °C

| koff | Binder |
| --- | --- |
| 5.1e-05 s⁻¹ | Monodin (MA) (designed binder) FDASNFKDFSSIASASSSWQNQHGSTMIIQVDSFGNVSGQYVNRAEGTGCQNSPYPLTGRVNGTFIDFSVKWNNSTENCNSNTQWTGYAQVNGNNTEIVTRWNLKYEGGSGPAIWQGQDTFQYVPTTE |
| 4.9e-05 s⁻¹ | Rhizavidin (RA) (protein) FDASNFKDFSSIASASSSWQNQSGSTMIIQVDSFGNVSGQYVNRAQGTGCQNSPYPLTGRVNGTFIAFSVGWNNSTENCNSATGWTGYAQVNGNNTEIVTSWNLAYEGGSGPAIEQGQDTFQYVPTTE |
